Measured values as given in patent publication US7785825B2, “Compositions and methods for dehydration and cyclization of peptides, synthetic compounds, and lantibiotics” (priority 2004, dated 2010).

Key:
LctM = LctM (Lactococcus lactis subsp. lactis, UniProt P37609); assay: LctM activity assay: dehydration and cyclization of peptide substrates, read out by MS; assay type: biochemical, Lactococcus lactis CNRZ 481; details: for effect on LctM processing of His6-LctA: ATP analog in place of ATP, EDTA added; for number of dehydrations after incubation with LctM: MALDI-MS / ESI-FTMS of product
Source text: For MALDI MS analysis, 1 microL of the assay sample was mixed with 9 microL of sinapinic acid pre-dissolved in MeCN:H2O (2:1) in 0.1% TFA and 1 microL of the mixture was applied on the MALDI target. MALDI MS calcd. […] ESI-FT-MS for the major product: mass calcd.

[1] = target: LctRumA (Artificial Sequence)
[2] = target: MutA (His-tagged mutacin II prepeptide) (Artificial)
[3] = target: His6-LctA-T48S (Lactococcus lactis CNRZ 481)
[4] = target: LctMutA (Artificial Sequence)
[5] = target: LctMutAK (Artificial Sequence)
[6] = target: His6-LctA (Lactococcus lactis CNRZ 481)
[7] = test system: methicillin-resistant Staphylococcus aureus (MRSA); details: cited from earlier work
[8] = target: T1, protease domain of LctT (GST-Lpd) (Lactococcus lactis subsp. lactis, UniProt P37608); assay: Leader cleavage by the LctT protease domain (GST-Lpd); assay type: biochemical, Lactococcus lactis CNRZ 481; details: MALDI-TOF MS
T1 sequence (P37608 whole entry, looked up): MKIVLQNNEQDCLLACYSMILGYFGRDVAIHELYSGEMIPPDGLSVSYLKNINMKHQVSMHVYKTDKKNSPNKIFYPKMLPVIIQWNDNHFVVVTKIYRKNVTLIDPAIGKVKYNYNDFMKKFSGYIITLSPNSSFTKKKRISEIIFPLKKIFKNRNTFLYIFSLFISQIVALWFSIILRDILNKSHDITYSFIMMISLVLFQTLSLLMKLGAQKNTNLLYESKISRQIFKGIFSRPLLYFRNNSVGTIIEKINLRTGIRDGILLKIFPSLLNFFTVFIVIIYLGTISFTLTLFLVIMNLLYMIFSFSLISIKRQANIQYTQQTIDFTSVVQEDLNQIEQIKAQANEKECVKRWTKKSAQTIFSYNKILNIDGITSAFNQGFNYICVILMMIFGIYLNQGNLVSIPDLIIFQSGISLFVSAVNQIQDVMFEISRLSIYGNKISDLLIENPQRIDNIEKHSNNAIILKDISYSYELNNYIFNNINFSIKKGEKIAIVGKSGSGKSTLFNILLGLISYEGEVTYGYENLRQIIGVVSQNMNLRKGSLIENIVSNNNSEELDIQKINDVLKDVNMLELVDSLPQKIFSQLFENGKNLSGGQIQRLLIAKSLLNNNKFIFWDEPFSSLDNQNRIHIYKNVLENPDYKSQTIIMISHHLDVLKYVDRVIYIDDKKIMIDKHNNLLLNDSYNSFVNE
Method: Cleavage of His-LctA and His-pro-Lacticin. The unmodified His-LctA substrate was either directly incubated with GST-Lpd or first modified by LctM prior to incubation with the protease. Assay mixtures typically contained substrate (50-500 μg), GST-Lpd (35-70 μg) and a buffer consisting of 200 mM NaPi, pH 7.5, 200 mM Na2SO4 and 5 mM DTT. Assays were incubated at 37° C. for 12 h and analyzed by MALDI-TOF MS. Both unmodified and modified His-LctA were substrates for GST-Lpd as determined by MALDI-TOF MS and sensitivity of indicator strain Lactococcus lactis 117 towards the modified substrate after cleavage. See FIG. 83 which illustrates LctT as a bifunctional protein including the proteolytic domain.

L. lactis CNRZ 117 = assay: Bioassay for lantibiotic activity (solid agar diffusion); assay type: cell-based, Lactococcus lactis; details: agar diffusion assay, lacticin 481-sensitive indicator strain L. lactis CNRZ 117
Method: The lyophilized assay product (˜0.1 microg) was redissolved in 6 microL of Millipore water. To the solution, 4 microL of a solution of Lys-C in 100 mM Tris, pH 8.5 (0.4 ng/microL) was added and the mixture was incubated at 37° C. for 3 h. The resulting mixture was checked by MALDI-TOF MS. Three fragments were expected and two were observed: calcd, 2310 ([1-21]), 2591 ([22-44]), 2773 ([45-70]); found, 2593 ([22-44]), 2775 ([45-70]).
Inhibitory activity was assayed by the solid agar medium test. A GM17 agar plate was seeded with the test strain by mixing 100 mL of liquid GM17 agar at 50° C. with 1.5 mL of an overnight culture. After agar solidification, wells were created in the medium and the samples were added to the wells. The activity of the starting peptide, LctM-product, and the product and starting peptide treated with Lys-C were determined using a solid agar diffusion bioassay with indicator strain L. lactis CNRZ 117 (See FIG. 5).
FIG. 5 illustrates a bioassay for lantibiotic activity. Small aliquots of the following samples were added in the wells: (1) His6-LctA (SEQ ID NO:4), (2) His6-LctA treated with Lys-C, (3) His6-LctA modified by LctM, (4) His6-LctA modified by LctM and treated with Lys-C, (5) cell free broth of L. lactis CNRZ 117, (6) cell free broth of L. lactis CNRZ 481 containing lacticin 481, (7) 50 mM Tris buffer, pH 8.5, (8) Lys-C in 50 mM Tris buffer, pH 8.5.

Sequence of LctM (P37609 whole entry): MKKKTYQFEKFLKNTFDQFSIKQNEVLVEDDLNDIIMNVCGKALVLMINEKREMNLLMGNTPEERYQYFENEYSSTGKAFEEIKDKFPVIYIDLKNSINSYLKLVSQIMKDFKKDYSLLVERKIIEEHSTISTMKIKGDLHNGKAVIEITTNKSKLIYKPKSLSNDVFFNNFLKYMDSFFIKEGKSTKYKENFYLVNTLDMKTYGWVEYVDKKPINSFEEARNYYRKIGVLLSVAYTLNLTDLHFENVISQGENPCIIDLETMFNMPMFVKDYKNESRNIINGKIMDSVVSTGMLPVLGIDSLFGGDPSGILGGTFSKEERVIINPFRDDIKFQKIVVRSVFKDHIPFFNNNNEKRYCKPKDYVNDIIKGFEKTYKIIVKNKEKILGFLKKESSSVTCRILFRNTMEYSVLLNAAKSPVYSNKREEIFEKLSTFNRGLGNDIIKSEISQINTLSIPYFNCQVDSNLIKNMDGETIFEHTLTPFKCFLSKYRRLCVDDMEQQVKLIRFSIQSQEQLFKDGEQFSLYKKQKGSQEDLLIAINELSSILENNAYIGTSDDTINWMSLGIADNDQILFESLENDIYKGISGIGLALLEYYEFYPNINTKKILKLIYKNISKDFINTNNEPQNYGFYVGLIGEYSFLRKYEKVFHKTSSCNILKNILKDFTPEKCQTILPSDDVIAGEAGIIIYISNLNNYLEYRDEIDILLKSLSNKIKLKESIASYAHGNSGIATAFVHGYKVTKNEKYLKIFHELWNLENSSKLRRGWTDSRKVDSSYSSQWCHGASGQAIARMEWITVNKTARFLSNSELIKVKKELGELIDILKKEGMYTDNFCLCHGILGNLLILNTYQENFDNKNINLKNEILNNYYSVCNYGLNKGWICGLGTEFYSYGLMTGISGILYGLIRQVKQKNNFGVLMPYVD

Nc1ncnc2c1ncn2[C@@H]1O[C@H](COP(=O)(O)OP(=O)(O)CP(=O)(O)O)[C@@H](O)[C@H]1O [AMP-PCP]
effect on LctM processing of His6-LctA (LctM): completely abolished

Nc1ncnc2c1ncn2[C@@H]1O[C@H](COP(=O)(O)OP(=O)(O)NP(=O)(O)O)[C@@H](O)[C@H]1O [AMP-PNP]
effect on LctM processing of His6-LctA (LctM): completely abolished

Nc1ncnc2c1ncn2[C@@H]1O[C@H](CO[P@](=O)(O)O[P@](=O)(O)O[P@@](=O)(O)S)[C@@H](O)[C@H]1O [ATP-gamma-S]
effect on LctM processing of His6-LctA (LctM): less efficient

O=C(O)CN(CCN(CC(=O)O)CC(=O)O)CC(=O)O [EDTA]
effect on LctM processing of His6-LctA (LctM): abolished the reaction

His6-LctM (lacticin 481 synthetase LctM with N-terminal His6-tag) (enzyme)
dehydration of the substrate [1]: 4 dehydrations | dehydration of the substrate [2]: 4 dehydrations | dehydration of the substrate (MS) [3]: 4 dehydrations | dehydration of the substrate [4]: 4 dehydrations | dehydration of the substrate [5]: 4 dehydrations | dehydration and cyclization of the substrate (ESI-FTMS, MS/MS) [6]: > 80%

mersacidin
cytotoxic activity against MRSA [7]: comparable cytotoxic activity

B1: His6-LctA (peptide)
peptide: GSSHHHHHHSSGLVPRGSHMKEQNSFNLLQEVTESELDLILGAKGGSGVIHTISHECNMNSWQFVFTCCS
cleavage of the leader by the LctT protease domain [8]: substrates | number of dehydrations after incubation with LctM (LctM): four | substrate converted to M-72 product (LctM; treatment with LctM for 1 hour): more than 80% | antimicrobial activity (zone of inhibition) (L. lactis CNRZ 117): No antimicrobial activity was detected

B2: His6-LctA modified by LctM: fully processed product, lacticin 481 fused to its leader peptide (peptide)
peptide: GSSHHHHHHSSGLVPRGSHMKEQNSFNLLQEVTESELDLILGAKGGSGVIHTISHECNMNSWQFVFTCCS
modifications: not fully specified (residues 52, 54, 61, 67, bridges)
cleavage of the leader by the LctT protease domain [8]: substrates | antimicrobial activity (zone of inhibition) (L. lactis CNRZ 117): No antimicrobial activity was detected

B3: LctMutA: His-tag, LctA leader and mutacin II structural region (peptide)
chain: GSSHHHHHHSSGLVPRGSHMLEMKEQNSFNLLQEVTESELDLILGANRWWQGVVPTVSYECRMNSWQHVFTCC
cleavage of the leader by the LctT protease domain [8]: can remove the leader peptide and the His-tag | number of dehydrations after incubation with LctM (LctM): 4
